Columns and labels:
HLA-A*02:01 [1] = assay: IEDB peptide-MHC binding, purified MHC/competitive/radioactivity; filed as Kd, often an IC50 or EC50 that approximates it; ≥ and ≤ were set here for values at or beyond the usual limits of such assays
HLA-A*02:03 = assay: as above
HLA-A*02:06 = assay: as above
HLA-A*02:17 = assay: as above
HLA-A*01:01 [2] = assay: as above; conditions: source organism: Dengue virus 4 Philippines/H241/1956
HLA-A*30:01 = assay: as above; conditions: source organism: Dengue virus 1 Brazil/97-11/1997
HLA-A*29:02 [3] = assay: IEDB peptide-MHC binding, purified MHC/competitive/fluorescence; filed as Kd, often an IC50 or EC50 that approximates it; ≥ and ≤ were set here for values at or beyond the usual limits of such assays
HLA-A*68:02 [4] = assay: IEDB peptide-MHC binding, purified MHC/competitive/radioactivity; filed as Kd, often an IC50 or EC50 that approximates it; ≥ and ≤ were set here for values at or beyond the usual limits of such assays; conditions: source organism: Dengue virus 3 Martinique/1243/1999
HLA-A*11:01 = assay: IEDB peptide-MHC binding, purified MHC/direct/fluorescence; filed as Kd, often an IC50 or EC50 that approximates it; ≥ and ≤ were set here for values at or beyond the usual limits of such assays; conditions: source organism: dengue virus type 2
HLA-A*31:01 = assay: IEDB peptide-MHC binding, purified MHC/competitive/fluorescence; filed as Kd, often an IC50 or EC50 that approximates it; ≥ and ≤ were set here for values at or beyond the usual limits of such assays; conditions: source organism: Dengue virus 3 Philippines/H87/1956
HLA-B*15:42 = assay: as above; conditions: source organism: Dengue virus 3 Philippines/H87/1956
HLA-B*45:06 = assay: as above; conditions: source organism: Dengue virus 3 Philippines/H87/1956
HLA-B*83:01 = assay: as above; conditions: source organism: Dengue virus 3 Philippines/H87/1956
HLA-A*68:01 = assay: IEDB peptide-MHC binding, purified MHC/competitive/radioactivity; filed as Kd, often an IC50 or EC50 that approximates it; ≥ and ≤ were set here for values at or beyond the usual limits of such assays; conditions: source organism: Dengue virus 3 Martinique/1243/1999
HLA-A*01:01 [5] = assay: IEDB peptide-MHC binding, purified MHC/competitive/fluorescence; filed as Kd, often an IC50 or EC50 that approximates it; ≥ and ≤ were set here for values at or beyond the usual limits of such assays
HLA-B*46:01 = assay: as above
HLA-A*02:11 = assay: IEDB peptide-MHC binding, purified MHC/direct/fluorescence; filed as Kd, often an IC50 or EC50 that approximates it; ≥ and ≤ were set here for values at or beyond the usual limits of such assays; conditions: source organism: Araucaria virus
HLA-A*02:12 = assay: as above; conditions: source organism: Araucaria virus
HLA-A*02:16 = assay: as above; conditions: source organism: Araucaria virus
HLA-A*02:19 = assay: as above; conditions: source organism: Araucaria virus
HLA-A*03:01 = assay: as above; conditions: source organism: Araucaria virus
HLA-A*23:01 = assay: as above; conditions: source organism: Araucaria virus
HLA-A*24:03 = assay: as above; conditions: source organism: Araucaria virus
HLA-A*29:02 [6] = assay: as above; conditions: source organism: Araucaria virus
HLA-A*68:02 [7] = assay: as above; conditions: source organism: Araucaria virus
HLA-B*15:01 = assay: as above; conditions: source organism: Orthohantavirus andesense
HLA-A*02:01 [8] = assay: IEDB peptide-MHC binding, purified MHC/competitive/fluorescence; filed as Kd, often an IC50 or EC50 that approximates it; ≥ and ≤ were set here for values at or beyond the usual limits of such assays; conditions: source organism: Araucaria virus
HLA-A*26:01 = assay: as above; conditions: source organism: Araucaria virus
HLA-A*69:01 = assay: as above; conditions: source organism: Araucaria virus
HLA-B*15:17 = assay: as above; conditions: source organism: Araucaria virus
HLA-B*18:01 = assay: as above; conditions: source organism: Araucaria virus
HLA-B*27:03 = assay: as above; conditions: source organism: Araucaria virus
HLA-B*39:01 = assay: as above; conditions: source organism: Araucaria virus
HLA-B*51:01 = assay: as above; conditions: source organism: Araucaria virus
HLA-B*57:01 = assay: as above; conditions: source organism: Araucaria virus
[9] = source organism: Dengue virus 2 Thailand/NGS-C/1944
[10] = source organism: Dengue virus 2 Peru/IQT2913/1996
[11] = source organism: Dengue virus 4 Philippines/H241/1956
[12] = source organism: Dengue virus 1 Singapore/S275/1990

Question: Which results are given for MLLVLCVTQV?
Answer: Kd (HLA-A*02:01 [1]; [9]): 26.5 nM; Kd (HLA-A*02:03; [10]): 175 nM; Kd (HLA-A*02:06; [10]): 84 nM; Kd (HLA-A*02:17; [9]): 843 nM

Question: What does the source list for VTYECPLLV?
Answer: Kd (HLA-A*01:01 [2]): 343 nM; Kd (HLA-A*02:01 [1]; [11]): 26.6 nM; Kd (HLA-A*02:17; [11]): 562 nM

Question: TMLLMLLPTA was tested. Which Kd (HLA-A*02:01 [1]; [12]) did it give?
Answer: The Kd was 30.6 nM.

Question: What about the Kd (HLA-A*02:06; source organism: Dengue virus 1 Brazil/97-11/1997) of the same sequence?
Answer: The Kd was 2.59 nM.

Question: And the Kd (HLA-A*02:17; [12])?
Answer: Its Kd is 661 nM.

Question: And the Kd (HLA-A*30:01)?
Answer: The Kd was 12400 nM.

Question: For FESTITGEY, which Kd (HLA-A*29:02 [3]; source organism: Vibrio cholerae 2740-80) is on record?
Answer: The Kd was 7.5 nM.

Question: How did the Kd (HLA-A*02:01 [1]; [11]) turn out when GVFHTMWHV was run?
Answer: The Kd was 7.59 nM.

Question: And the Kd (HLA-A*02:06; source organism: Dengue virus 3 Martinique/1243/1999)?
Answer: The Kd was 4.41 nM.

Question: And the Kd (HLA-A*02:17; [11])?
Answer: Its Kd is 109 nM.

Question: What about the Kd (HLA-A*68:02 [4]) of the same sequence?
Answer: Its Kd is 7.01 nM.

Question: Which results are given for FMKDGRSLV?
Answer: Kd (HLA-A*02:01 [1]; [11]): 219 nM; Kd (HLA-A*02:03; [11]): 16.1 nM; Kd (HLA-A*02:06; [11]): 318 nM; Kd (HLA-A*02:17; [11]): 1660 nM

Question: How did the Kd (HLA-A*02:17; source organism: Dengue virus 3 China/80-2/1980) turn out when YLALIATFKI was run?
Answer: The Kd was 885 nM.

Question: For TVMDIISRK, which Kd (HLA-A*11:01) is on record?
Answer: The Kd was 1.7 nM.

Question: And the Kd (HLA-A*31:01)?
Answer: The Kd was ≥ 50000 nM.

Question: And the Kd (HLA-B*15:42)?
Answer: Its Kd is ≥ 5000 nM.

Question: And the Kd (HLA-B*45:06)?
Answer: The Kd was ≥ 5000 nM.

Question: And the Kd (HLA-B*83:01)?
Answer: Its Kd is ≥ 5000 nM.

Question: And the Kd (HLA-A*68:01)?
Answer: The Kd was 10.5 nM.

Question: Which Kd (HLA-A*01:01 [5]; source organism: Homo sapiens) does the source give for VSMDQLASY here?
Answer: The Kd was 164 nM.

Question: What about the Kd (HLA-B*46:01; source organism: Homo sapiens) of the same sequence?
Answer: The Kd was 31.4 nM.

Question: MVKMGGLGY was tested. Which Kd (HLA-A*01:01 [5]; source organism: Rotavirus G3) did it give?
Answer: Its Kd is ≥ 20000 nM.

Question: And the Kd (HLA-A*29:02 [3]; source organism: Rotavirus G3)?
Answer: The Kd was 28.6 nM.

Question: What does the source list for AQKLATKPV?
Answer: Kd (HLA-A*02:11): ≥ 20000 nM; Kd (HLA-A*02:12): ≥ 20000 nM; Kd (HLA-A*02:16): ≥ 20000 nM; Kd (HLA-A*02:19): ≥ 20000 nM; Kd (HLA-A*03:01): ≥ 20000 nM; Kd (HLA-A*23:01): ≥ 20000 nM; Kd (HLA-A*24:03): ≥ 20000 nM; Kd (HLA-A*29:02 [6]): ≥ 20000 nM; Kd (HLA-A*68:02 [7]): ≥ 20000 nM; Kd (HLA-B*15:01): 716 nM; Kd (HLA-A*02:01 [8]): ≥ 20000 nM; Kd (HLA-A*26:01): ≥ 20000 nM; Kd (HLA-A*69:01): ≥ 20000 nM; Kd (HLA-B*15:17): ≥ 20000 nM; Kd (HLA-B*18:01): ≥ 20000 nM; Kd (HLA-B*27:03): ≥ 20000 nM; Kd (HLA-B*39:01): ≥ 20000 nM; Kd (HLA-B*46:01; source organism: Araucaria virus): ≥ 20000 nM; Kd (HLA-B*51:01): ≥ 20000 nM; Kd (HLA-B*57:01): ≥ 20000 nM

Source: the Immune Epitope Database (IEDB)
